Data as given in patent US20250076311A1 (Chugai, published 2025).
Substitutions are numbered along the chain they refer to. Names may count otherwise.

T1: cynomolgus monkey FcγRIIb extracellular domain, His-tagged (cynomolgus monkey)
T1 construct: also called cyno FcgRIIb
T1 chain: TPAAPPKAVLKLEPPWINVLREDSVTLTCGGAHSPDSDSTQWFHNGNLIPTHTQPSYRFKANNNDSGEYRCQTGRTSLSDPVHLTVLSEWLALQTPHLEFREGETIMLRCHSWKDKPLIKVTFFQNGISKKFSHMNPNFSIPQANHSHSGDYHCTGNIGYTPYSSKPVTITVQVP

T2: cynomolgus monkey FcγRIIa1 extracellular domain, His-tagged (cynomolgus monkey)
T2 construct: also called cyno FcgRIIa1
T2 chain: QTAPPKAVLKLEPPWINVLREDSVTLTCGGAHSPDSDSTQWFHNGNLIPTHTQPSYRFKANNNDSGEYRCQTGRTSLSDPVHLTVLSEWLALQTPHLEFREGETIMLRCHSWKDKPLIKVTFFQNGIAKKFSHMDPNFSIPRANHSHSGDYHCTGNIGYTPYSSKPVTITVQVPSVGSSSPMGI

T3: cynomolgus monkey FcγRIIa3 extracellular domain, His-tagged (cynomolgus monkey)
T3 construct: also called cyno FcgRIIa3
T3 chain: T2 chain with P95T, T121A, A128S, H133P, D135N

T4: cynomolgus monkey FcγRIIIaS extracellular domain, His-tagged (cynomolgus monkey, UniProt Q8SPW2 21-206 at identity 1.00))
T4 construct: also called cyno FcgRIIIaS
T4 chain: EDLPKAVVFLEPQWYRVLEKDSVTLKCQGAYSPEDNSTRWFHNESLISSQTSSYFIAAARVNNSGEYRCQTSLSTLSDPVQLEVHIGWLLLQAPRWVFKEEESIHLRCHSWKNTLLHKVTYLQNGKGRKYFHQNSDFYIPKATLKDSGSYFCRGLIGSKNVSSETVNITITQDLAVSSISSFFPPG

T5: cynomolgus monkey FcγRIIa2 extracellular domain, His-tagged (cynomolgus monkey)
T5 construct: also called cyno FcgRIIa2
T5 chain: T2 chain with P95T, T121A, I127K, A128S, K130N, D135N, R142Q

T6: human FcγRIIaH extracellular domain, His-tagged (human, UniProt P12318 34-217)
T6 construct: also called human FcgRIIaH; FcγRIIa type H
T6 sequence: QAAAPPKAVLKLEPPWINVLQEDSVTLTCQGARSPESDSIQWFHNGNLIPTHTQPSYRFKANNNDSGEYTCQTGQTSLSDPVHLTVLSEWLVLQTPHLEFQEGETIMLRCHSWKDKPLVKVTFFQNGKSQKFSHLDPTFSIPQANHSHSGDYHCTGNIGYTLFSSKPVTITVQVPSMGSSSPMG

T7: cynomolgus monkey FcγRIIa3 extracellular domain with C-terminal His-tag (cynomolgus monkey)
T7 construct: also called cyno FcgRIIa3; cynoFcγRIIa3; not shown: His-tag added to C-terminus
T7 chain: T2 chain with P95T, T121A, A128S, H133P, D135N

T8: human FcγRIIb extracellular domain with C-terminal His-tag (human, UniProt P31994 43-217)
T8 construct: also called human FcgRIIb; not shown: His-tag added to C-terminus
T8 sequence: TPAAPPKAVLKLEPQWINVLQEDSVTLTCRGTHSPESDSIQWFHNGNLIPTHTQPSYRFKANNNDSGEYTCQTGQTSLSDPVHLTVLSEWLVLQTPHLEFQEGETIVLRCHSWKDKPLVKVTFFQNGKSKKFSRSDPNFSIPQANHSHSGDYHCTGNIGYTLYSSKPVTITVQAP

B1: M103205H795-SG179 / M103202L889-SK1 (antibody, human IgG1, kappa, name in EU numbering)
heavy: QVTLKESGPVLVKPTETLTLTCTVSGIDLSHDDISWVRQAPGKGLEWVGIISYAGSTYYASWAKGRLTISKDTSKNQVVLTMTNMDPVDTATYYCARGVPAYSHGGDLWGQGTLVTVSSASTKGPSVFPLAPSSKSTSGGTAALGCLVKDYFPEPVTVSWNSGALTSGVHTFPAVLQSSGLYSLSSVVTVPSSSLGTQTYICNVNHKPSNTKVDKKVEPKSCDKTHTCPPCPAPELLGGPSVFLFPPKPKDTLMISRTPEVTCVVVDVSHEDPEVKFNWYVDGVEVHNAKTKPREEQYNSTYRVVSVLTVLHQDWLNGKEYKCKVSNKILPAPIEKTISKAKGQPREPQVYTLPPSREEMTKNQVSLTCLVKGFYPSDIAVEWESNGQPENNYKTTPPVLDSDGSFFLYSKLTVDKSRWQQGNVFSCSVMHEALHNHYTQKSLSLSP
light: DIVMTQSPATLSLSPGERATLSCTSSQSVYHANWLSWFQQKPGQPPKLLIYWASTLAYGVPSRFSGSGSGTDFTLTISSLQPEDAATYYCAGGYGGGRYAFGQGTKVEIKRTVAAPSVFIFPPSDEQLKSGTASVVCLLNNFYPREAKVQWKVDNALQSGNSQESVTEQDSKDSTYSLSSTLTLSKADYEKHKVYACEVTHQGLSSPVTKSFNRGEC
notes: also called A327I
B2: M103205H795-SG174 / M103202L889-SK1 (antibody, human IgG1, kappa, name in EU numbering)
heavy: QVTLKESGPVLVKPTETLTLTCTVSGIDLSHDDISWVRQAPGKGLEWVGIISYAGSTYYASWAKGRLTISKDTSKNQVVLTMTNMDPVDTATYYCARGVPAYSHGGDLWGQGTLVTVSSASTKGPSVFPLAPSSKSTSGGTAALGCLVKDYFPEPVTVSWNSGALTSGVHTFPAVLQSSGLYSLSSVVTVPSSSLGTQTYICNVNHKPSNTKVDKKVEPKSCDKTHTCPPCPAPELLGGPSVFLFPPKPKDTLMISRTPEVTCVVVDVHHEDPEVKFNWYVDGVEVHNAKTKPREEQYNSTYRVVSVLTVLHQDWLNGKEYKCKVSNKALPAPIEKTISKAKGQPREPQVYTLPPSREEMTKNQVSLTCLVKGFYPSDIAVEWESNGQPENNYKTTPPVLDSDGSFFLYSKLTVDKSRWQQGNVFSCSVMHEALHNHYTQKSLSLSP
light: B1 light
notes: also called S267H
B3: M103205H795-SG170 / M103202L889-SK1 (antibody, human IgG1, kappa, name in EU numbering)
heavy: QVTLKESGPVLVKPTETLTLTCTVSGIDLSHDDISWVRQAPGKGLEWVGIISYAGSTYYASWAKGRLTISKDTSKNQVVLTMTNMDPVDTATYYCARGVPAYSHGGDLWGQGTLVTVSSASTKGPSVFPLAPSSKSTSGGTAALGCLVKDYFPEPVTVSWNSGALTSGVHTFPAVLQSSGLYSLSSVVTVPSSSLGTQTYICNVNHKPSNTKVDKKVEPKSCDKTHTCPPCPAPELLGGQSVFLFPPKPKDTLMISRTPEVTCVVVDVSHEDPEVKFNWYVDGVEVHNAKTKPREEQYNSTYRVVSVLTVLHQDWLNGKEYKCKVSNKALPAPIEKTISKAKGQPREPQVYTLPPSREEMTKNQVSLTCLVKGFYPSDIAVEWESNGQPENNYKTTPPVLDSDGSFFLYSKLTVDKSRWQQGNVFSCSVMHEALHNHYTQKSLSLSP
light: B1 light
notes: also called P238Q
B4: M103205H795-SG168 / M103202L889-SK1 (antibody, human IgG1, kappa, name in EU numbering)
heavy: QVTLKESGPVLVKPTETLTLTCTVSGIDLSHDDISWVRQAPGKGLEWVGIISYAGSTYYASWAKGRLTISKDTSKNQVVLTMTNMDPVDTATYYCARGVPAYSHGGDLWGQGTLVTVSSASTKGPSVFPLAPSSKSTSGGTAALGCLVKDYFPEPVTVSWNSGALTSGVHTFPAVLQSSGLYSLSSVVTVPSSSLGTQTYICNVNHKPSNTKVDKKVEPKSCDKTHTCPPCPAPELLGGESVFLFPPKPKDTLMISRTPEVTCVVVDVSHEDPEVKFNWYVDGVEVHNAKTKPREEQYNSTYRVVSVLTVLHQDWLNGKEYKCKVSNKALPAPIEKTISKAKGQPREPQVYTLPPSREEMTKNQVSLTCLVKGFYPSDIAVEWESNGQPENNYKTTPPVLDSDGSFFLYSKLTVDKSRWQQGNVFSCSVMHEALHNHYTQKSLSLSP
light: B1 light
notes: also called P238E
B5: M103205H795-SG172 / M103202L889-SK1 (antibody, human IgG1, kappa, name in EU numbering)
heavy: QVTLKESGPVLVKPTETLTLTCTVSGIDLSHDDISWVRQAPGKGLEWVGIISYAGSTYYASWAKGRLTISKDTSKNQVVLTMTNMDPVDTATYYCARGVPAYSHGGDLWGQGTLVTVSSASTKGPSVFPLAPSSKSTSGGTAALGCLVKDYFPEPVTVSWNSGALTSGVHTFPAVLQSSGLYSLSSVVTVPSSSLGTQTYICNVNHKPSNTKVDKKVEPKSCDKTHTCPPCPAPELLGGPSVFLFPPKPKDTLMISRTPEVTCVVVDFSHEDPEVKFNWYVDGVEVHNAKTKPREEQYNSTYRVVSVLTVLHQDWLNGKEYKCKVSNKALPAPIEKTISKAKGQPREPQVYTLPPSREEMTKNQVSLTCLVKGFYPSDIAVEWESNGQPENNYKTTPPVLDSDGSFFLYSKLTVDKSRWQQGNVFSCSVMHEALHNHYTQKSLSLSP
light: B1 light
notes: also called V266F
B6: M103205H795-SG177 / M103202L889-SK1 (antibody, human IgG1, kappa, name in EU numbering)
heavy: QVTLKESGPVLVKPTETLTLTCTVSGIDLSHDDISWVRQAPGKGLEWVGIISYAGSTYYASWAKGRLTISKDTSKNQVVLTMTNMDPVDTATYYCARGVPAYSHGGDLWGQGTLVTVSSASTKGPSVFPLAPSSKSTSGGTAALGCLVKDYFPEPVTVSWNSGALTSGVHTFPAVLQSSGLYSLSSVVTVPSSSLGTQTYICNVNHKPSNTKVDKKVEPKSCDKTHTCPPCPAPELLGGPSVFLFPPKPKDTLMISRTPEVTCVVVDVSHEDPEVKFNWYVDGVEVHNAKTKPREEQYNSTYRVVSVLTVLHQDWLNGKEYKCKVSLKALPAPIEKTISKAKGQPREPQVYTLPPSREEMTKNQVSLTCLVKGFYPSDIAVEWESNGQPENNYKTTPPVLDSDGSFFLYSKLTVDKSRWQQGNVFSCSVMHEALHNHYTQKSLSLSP
light: B1 light
notes: also called N325L
B7: M103205H795-SG169 / M103202L889-SK1 (antibody, human IgG1, kappa, name in EU numbering)
heavy: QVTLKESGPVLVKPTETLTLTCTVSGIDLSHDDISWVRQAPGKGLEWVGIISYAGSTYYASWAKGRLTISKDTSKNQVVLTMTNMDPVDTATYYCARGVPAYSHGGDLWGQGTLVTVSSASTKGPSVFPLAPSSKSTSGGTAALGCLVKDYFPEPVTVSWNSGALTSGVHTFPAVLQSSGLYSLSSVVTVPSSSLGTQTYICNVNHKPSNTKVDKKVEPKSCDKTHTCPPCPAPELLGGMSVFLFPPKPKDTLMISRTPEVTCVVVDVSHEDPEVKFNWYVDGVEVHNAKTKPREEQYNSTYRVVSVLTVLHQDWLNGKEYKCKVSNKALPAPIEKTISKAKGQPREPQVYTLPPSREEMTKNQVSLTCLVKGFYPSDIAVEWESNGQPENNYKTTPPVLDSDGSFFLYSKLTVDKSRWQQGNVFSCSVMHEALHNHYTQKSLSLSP
light: B1 light
notes: also called P238M
B8: M103205H795-SG173 / M103202L889-SK1 (antibody, human IgG1, kappa, name in EU numbering)
heavy: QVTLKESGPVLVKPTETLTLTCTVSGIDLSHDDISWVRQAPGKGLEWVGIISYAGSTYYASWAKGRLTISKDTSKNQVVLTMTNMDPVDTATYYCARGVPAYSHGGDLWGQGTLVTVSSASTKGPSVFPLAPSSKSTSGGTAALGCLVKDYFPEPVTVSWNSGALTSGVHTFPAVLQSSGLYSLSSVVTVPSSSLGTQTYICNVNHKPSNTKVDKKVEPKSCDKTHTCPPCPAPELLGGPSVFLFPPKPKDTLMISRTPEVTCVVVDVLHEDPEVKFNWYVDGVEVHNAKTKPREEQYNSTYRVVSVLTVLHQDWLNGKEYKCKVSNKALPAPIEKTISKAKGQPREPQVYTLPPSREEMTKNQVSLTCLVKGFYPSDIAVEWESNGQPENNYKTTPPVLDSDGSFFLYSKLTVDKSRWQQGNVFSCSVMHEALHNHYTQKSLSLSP
light: B1 light
notes: also called S267L
B9: M103205H795-SG176 / M103202L889-SK1 (antibody, human IgG1, kappa, name in EU numbering)
heavy: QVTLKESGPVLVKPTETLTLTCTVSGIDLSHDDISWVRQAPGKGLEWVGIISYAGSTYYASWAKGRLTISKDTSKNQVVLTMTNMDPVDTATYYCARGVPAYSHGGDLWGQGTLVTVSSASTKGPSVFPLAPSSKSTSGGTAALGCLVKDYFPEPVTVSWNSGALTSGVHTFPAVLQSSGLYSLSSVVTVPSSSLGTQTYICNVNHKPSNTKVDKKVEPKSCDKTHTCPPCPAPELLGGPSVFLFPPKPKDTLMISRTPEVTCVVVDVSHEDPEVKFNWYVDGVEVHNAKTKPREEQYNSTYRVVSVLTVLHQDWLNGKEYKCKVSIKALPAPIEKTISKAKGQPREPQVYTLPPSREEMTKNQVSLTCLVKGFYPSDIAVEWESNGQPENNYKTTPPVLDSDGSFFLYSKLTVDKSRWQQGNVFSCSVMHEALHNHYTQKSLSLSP
light: B1 light
notes: also called N325I
B10: M103205H795-SG178 / M103202L889-SK1 (antibody, human IgG1, kappa, name in EU numbering)
heavy: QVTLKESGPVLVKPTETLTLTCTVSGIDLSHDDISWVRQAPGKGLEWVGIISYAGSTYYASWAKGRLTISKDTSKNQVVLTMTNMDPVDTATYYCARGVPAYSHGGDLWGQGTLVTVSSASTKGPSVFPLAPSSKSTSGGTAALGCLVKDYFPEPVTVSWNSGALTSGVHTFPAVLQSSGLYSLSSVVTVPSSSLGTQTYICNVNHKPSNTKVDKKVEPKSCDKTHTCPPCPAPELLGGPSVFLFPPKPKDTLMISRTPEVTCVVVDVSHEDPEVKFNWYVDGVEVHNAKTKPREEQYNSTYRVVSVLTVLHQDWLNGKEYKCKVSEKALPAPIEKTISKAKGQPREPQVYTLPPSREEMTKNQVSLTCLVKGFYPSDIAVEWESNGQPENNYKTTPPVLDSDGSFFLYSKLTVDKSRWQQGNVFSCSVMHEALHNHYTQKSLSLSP
light: B1 light
notes: also called N325E
B11: M103205H795-SG167 / M103202L889-SK1 (antibody, human IgG1, kappa, name in EU numbering)
heavy: not shown
light: B1 light
notes: also called P238Y
B12: GpH7-B3 G237Y / GpL16-k0 (antibody, human IgG1, kappa)
heavy: not shown
light: DIVMTQSPLSLPVTPGEPASISCQASESLVHSNRNTYLHWYLQKPGQSPQLLIYKVSNRFSGVPDRFSGSGSGTDFTLKISRVEAEDVGVYYCSQNTHVPPTFGQGTKVEIERTVAAPSVFIFPPSDEQLKSGTASVVCLLNNFYPREAKVQWKVDNALQSGNSQESVTEQDSKDSTYSLSSTLTLSKADYEKHKVYACEVTHQGLSSPVTKSFNRGEC
notes: also called B3 variant G237Y
B13: GpH7-B3 P238M / GpL16-k0 (antibody, human IgG1, kappa)
heavy: not shown
light: B12 light
notes: also called B3 variant P238M
B14: GpH7-B3 N325I / GpL16-k0 (antibody, human IgG1, kappa)
heavy: not shown
light: B12 light
notes: also called B3 variant N325I
B15: M103205H795-MY181/M103202L889-SK1 (antibody, human IgG1, kappa, name in EU numbering)
heavy: QVTLKESGPVLVKPTETLTLTCTVSGIDLSHDDISWVRQAPGKGLEWVGIISYAGSTYYASWAKGRLTISKDTSKNQVVLTMTNMDPVDTATYYCARGVPAYSHGGDLWGQGTLVTVSSASTKGPSVFPLAPSSKSTSGGTAALGCLVKDYFPEPVTVSWNSGALTSGVHTFPAVLQSSGLYSLSSVVTVPSSSLGTQTYICNVNHKPSNTKVDKKVEPKSCDKTHTCPPCPAPELLNGPSVFLFPPKPKDTLMISRTPEVTCVVVDVSEEDPEVKFNWYVDGVEVHNAKTKPREEQYNSTYRVVSVLTVLHQDWLNGKEYKCKVSNKALPAPIEKTISKAKGQPREPQVYTLPPSREEMTKNQVSLTCLVKGFYPSDIAVEWESNGQPENNYKTTPTVLDSDGSFFLYSKLTVDKSRWQQGNVFSCSVMHEALHNHYTQKSLSLSP
light: B1 light
notes: EU numbering

Molecular target: T1, cynomolgus monkey FcγRIIb extracellular …
Assay: SPR (Biacore), 25C, FcgR bound per antibody captured
Description: (§1) In the next step, cross-reactivity of these substitutions to cynoFcγRs was evaluated.
(§2) The value of the amount of FcγR binding was obtained by dividing the amount of FcγR bound by the amount of each antibody captured.

Binding to cynoFcgRs (SG1 = 100) | Binder
19 | B1
11 | B2
18 | B3
28 | B4
16 | B5
18 | B6
22 | B7
12 | B8
16 | B9
26 | B10
22 | B11

Molecular target: T2, cynomolgus monkey FcγRIIa1 …
Assay: as above
Description: as §1, §2

Binding to cynoFcgRs (SG1 = 100) | Binder
19 | B1
13 | B2
16 | B3
21 | B4
14 | B5
15 | B6
17 | B7
13 | B8
14 | B9
22 | B10
18 | B11

Molecular target: T3, cynomolgus monkey FcγRIIa3 …
Assay: as above
Description: as §1, §2

Binding to cynoFcgRs (SG1 = 100) | Binder
28 | B1
20 | B2
21 | B3
30 | B4
27 | B5
25 | B6
32 | B7
21 | B8
19 | B9
29 | B10
38 | B11

Molecular target: T4, cynomolgus monkey FcγRIIIaS …
Assay: as above
Description: as §1, §2

Binding to cynoFcgRs (SG1 = 100) | Binder
48 | B1
15 | B2
12 | B3
13 | B4
31 | B5
21 | B6
22 | B7
24 | B8
20 | B9
36 | B10
14 | B11

Molecular target: T5, cynomolgus monkey FcγRIIa2 …
Assay: as above
Description: as §1, §2

Binding to cynoFcgRs (SG1 = 100) | Binder
17 | B1
16 | B2
15 | B3
16 | B4
17 | B5
15 | B6
16 | B7
14 | B8
15 | B9
21 | B10
14 | B11

These binders were tested against T6, human FcγRIIaH extracellular domain, … in the same assay as above.

Binding to human FcgRs (parent B3 = 100) | Binder
77 | B12
86 | B13
76 | B14

These binders were tested against T9, human FcγRIIIaV extracellular domain, His-tagged (human, UniProt P08637 17-208) in the same assay as above.
T9 construct: also called human FcgRIIIaV
T9 sequence (P08637 17-208 F176V): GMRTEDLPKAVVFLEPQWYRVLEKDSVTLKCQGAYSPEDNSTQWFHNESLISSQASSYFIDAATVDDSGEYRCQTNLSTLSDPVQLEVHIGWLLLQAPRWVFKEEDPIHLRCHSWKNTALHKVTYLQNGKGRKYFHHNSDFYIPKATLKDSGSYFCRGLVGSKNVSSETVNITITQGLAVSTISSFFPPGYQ

Binding to human FcgRs (parent B3 = 100) | Binder
0 | B12
2 | B13
1 | B14

Molecular target: T7, cynomolgus monkey FcγRIIa3 …
Assay: SPR Biacore, antibody captured, FcgR analyte

KD fold (SG1 = 1) [fold] | Binder
1.1 | B15

Each binder was assayed against T10, cynomolgus monkey FcγRIIIaS extracellular domain with C-terminal His-tag (cynomolgus monkey, UniProt A3RFZ7 21-206 (rhesus entry)) (assay: SPR Biacore, antibody captured, FcgR analyte).
T10 construct: also called cyno FcgRIIIaS; cynoFcγRIIIaS; not shown: His-tag added to C-terminus

KD fold (SG1 = 1) [fold] | Kd [nM] | Binder
0.09 | 4100 | B15

Each binder was assayed against T8, human FcγRIIb extracellular domain with … (assay: SPR Biacore, antibody captured, FcgR analyte).

Kd [nM] | Binder
1400 | B15
